For the experiment, the target named is human TLR3, full length (human) (UniProt O15455). Briefly: cell-based or functional assay.

B1: mAb c1068 (antibody, from another filing, V domains shown)
VH: QVQLQQPGAELVQPGTSVRLSCKASGYIFTTYWIHWVKQRPGQGLEWIGEINPNNGRINYNEKFKTKATLTVDKSSSTAYMQLSSLTSEDSAVYYCTRVGVMITTFPYWGQGTLVTVSA
VL: DIQMTQSPASLSASVGETVTITCRASGNIHNYLAWYQQKQGKSPQLLVYNAKTLADGVPSRFSGSESGTQYSLKINSLQPEDFGSYYCQHFWSTPFTFGSGTKLELK
B1 had a % inhibition of TLR3 biological activity, poly(I:C) NF-κB reporter gene assay in 293T cells, mAb at 10 µg/ml of 38% and a TLR3 neutralization at saturation concentrations of 50%.

These data come from EP3020822A1.
